According to article PMC4351158 (Structure (London, England : 1993), 2015):
Residue numbers refer to the chain shown, from its start. Where no end group is shown, it is not given here. fluorescein = fluorescein, a fluorescent label on the peptide N-terminus

Columns and labels:
Test in all cases: fluorescence polarisation
DegS I179A/H198P = biological target: T1, DegS I179A/H198P (E. coli, UniProt P0AEE3 27-355, I179A | H198P)
T1 sequence (looked up): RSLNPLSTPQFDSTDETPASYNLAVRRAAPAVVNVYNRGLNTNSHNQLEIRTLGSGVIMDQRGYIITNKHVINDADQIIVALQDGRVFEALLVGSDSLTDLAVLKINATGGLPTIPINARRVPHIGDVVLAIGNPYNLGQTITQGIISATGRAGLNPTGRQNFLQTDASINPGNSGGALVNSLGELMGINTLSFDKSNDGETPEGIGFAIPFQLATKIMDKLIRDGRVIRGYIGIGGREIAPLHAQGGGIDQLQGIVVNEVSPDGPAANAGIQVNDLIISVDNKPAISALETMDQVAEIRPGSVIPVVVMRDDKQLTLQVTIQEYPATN

DegS R178A = biological target: T2, DegS R178A (E. coli, UniProt P0AEE3 27-355, R178A)
T2 sequence (looked up): T1 sequence (looked up) with R152A, A153I, P172H

DegS N197A = biological target: T3, DegS N197A (E. coli, UniProt P0AEE3 27-355, N197A)
T3 sequence (looked up): T1 sequence (looked up) with A153I, N171A, P172H

DegS Y162A = biological target: T4, DegS Y162A (E. coli, UniProt P0AEE3 27-355, Y162A)
T4 sequence (looked up): T1 sequence (looked up) with Y136A, A153I, P172H

DegS F220A/H198P = biological target: T5, DegS F220A/H198P (E. coli, UniProt P0AEE3 27-355, F220A | H198P)
T5 sequence (looked up): T1 sequence (looked up) with A153I, F194A

DegS T167V = biological target: T6, DegS T167V (E. coli, UniProt P0AEE3 27-355, T167V)
T6 sequence (looked up): T1 sequence (looked up) with T141V, A153I, P172H

Kd (DegS I179A/H198P): 1600 ± 100 nM
Kd (DegS R178A): 3600 ± 200 nM
Kd (DegS N197A): 1400 ± 100 nM
Kd (DegS Y162A): 1900 ± 400 nM
Kd (DegS F220A/H198P): 1600 ± 100 nM
Kd (DegS T167V): 1800 ± 100 nM
B1: fluorescent OMP peptide fluorescein-DNRDGNVYYF (peptide)
peptide: fluorescein-DNRDGNVYYF
